This test deals with eukaryotic elongation factor 2 (eEF-2) from yeast (yeast (commercial yeast cake), UniProt P32324 1-842). Description: ITC. Background: Isothermal titration calorimetry measures the heat released or taken up as one component is titrated into another.
Sequence of eukaryotic elongation factor 2 (eEF-2) from yeast (P32324 whole entry): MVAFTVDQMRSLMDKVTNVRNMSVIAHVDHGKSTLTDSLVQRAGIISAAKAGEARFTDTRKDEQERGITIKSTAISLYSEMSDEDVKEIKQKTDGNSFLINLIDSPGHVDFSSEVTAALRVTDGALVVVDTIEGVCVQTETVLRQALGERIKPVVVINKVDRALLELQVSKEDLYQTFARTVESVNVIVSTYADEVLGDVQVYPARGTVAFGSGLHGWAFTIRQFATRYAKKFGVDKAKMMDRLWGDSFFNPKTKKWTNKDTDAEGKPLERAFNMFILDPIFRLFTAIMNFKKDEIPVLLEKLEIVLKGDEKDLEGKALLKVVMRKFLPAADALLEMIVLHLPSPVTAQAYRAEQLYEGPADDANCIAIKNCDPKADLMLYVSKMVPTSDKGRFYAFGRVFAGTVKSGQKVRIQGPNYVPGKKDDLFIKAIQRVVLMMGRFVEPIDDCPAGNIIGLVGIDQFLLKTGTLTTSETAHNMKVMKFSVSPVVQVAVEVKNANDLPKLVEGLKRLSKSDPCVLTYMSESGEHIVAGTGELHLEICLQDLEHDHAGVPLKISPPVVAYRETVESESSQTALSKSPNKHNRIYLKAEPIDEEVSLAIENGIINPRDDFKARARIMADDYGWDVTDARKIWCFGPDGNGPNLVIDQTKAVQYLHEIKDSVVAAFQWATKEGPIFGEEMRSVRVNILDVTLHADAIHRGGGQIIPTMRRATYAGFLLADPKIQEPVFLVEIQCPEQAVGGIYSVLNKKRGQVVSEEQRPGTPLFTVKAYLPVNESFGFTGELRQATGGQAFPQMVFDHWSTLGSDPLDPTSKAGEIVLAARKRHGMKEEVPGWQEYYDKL

B1: eEF-2K_(562–725), C-terminal fragment of human eukaryotic elongation factor 2 kinase (residues G562-E725) (domain or fragment)
chain: SHMGELEAIVGLGLMYSQLPHHILADVSLKETEENKTKGFDYLLKAAEAGDRQSMILVARAFDSGQNLSPDRCQDWLEALHWYNTALEMTDCDEGGEYDGMQDEPRYMMLAREAEMLFTGGYGLEKDPQRSGDLYTQAAEAAMEAMKGRLANQYYQKAEEAWAQMEE
On to B1, for which the Kd (in general, a measure of binding affinity in units of concentration) lay in the range of 4.2 to 8.9 µM.

B2: eEF-2K_(592–725), C-terminal fragment of human eukaryotic elongation factor 2 kinase (residues E592-E725) (domain or fragment, UniProt O00418 592-725, looked up)
chain: ENKTKGFDYLLKAAEAGDRQSMILVARAFDSGQNLSPDRCQDWLEALHWYNTALEMTDCDEGGEYDGMQDEPRYMMLAREAEMLFTGGYGLEKDPQRSGDLYTQAAEAAMEAMKGRLANQYYQKAEEAWAQMEE
As to B2, the Kd lay within 15.4 to 19 µM.

The values are drawn from PMC6599559 (Journal of molecular biology, 2019).
